For the test, the target named is FITC-sCT(22–32) (salmon, FITC label). The test is described as follows: fluorescence polarisation. Background: Fluorescence polarisation rises when a labelled molecule tumbles more slowly, as on binding a larger partner.

B1: RAMP1-CTR.34–141 WT (tethered RAMP1-CTR ECD fusion, AMY1 receptor ECD) (receptor)
chain: TTACQEANYGALLRELCLTQFQVDMEAVGETLWCDWGRTIRSYRELADCTWHMAEKLGCFWPNAEVDRFFLAVHGRYFRSCPISGRAVIEPKPFLYVVGRKKMMDAQYKCYDRMQQLPAYQGEGPYCNRTWDGWLCWDDTPAGVLSYQFCPDYFPDFDPSEKVTKYCDEKGVWFKHPENNRTWSNYTMCNAFTPEK
modifications: N-glycosylated (HEK293S GnTI−, enzyme treatment: none)
For the molecule B1, the Kd turned out to be 0.28 µM and the pKD was found to be 6.56.

What is called Kd is the free concentration of one partner at which half of the binding sites on the other are occupied at equilibrium, for simple one-to-one binding. By pKD is commonly meant the KD on a negative log10 scale, so that one unit is a factor of ten.
